Ends that are not written are not given here.
Key:
[1] = target: T1, SEQ ID NO 127 (15-residue oligopeptide of human gp130) (human, also: linker added for immobilisation); assay: peptide microarray, antibody at 10 ug/mL, fluorescence
T1 construct: also called 配列番号127
T1 peptide: VQDLKPFTEYVFRIR

[2] = target: T2, SEQ ID NO 128 (15-residue oligopeptide of human gp130) (human, also: linker added for immobilisation); assay: as above
T2 construct: also called 配列番号128
T2 peptide: DLKPFTEYVFRIRCM

[3] = target: T3, SEQ ID NO 108 (15-residue oligopeptide of human gp130) (human, also: linker added for immobilisation); assay: as above
T3 construct: also called 配列番号108
T3 peptide: SIKSVIILKYNIQYR

[4] = target: T4, SEQ ID NO 109 (15-residue oligopeptide of human gp130) (human, also: linker added for immobilisation); assay: as above
T4 construct: also called 配列番号109
T4 peptide: KSVIILKYNIQYRTK

[5] = target: T5, SEQ ID NO 110 (15-residue oligopeptide of human gp130) (human, also: linker added for immobilisation); assay: as above
T5 construct: also called 配列番号110
T5 peptide: VIILKYNIQYRTKDA

[6] = target: T6, 可溶性ヒトgp130受容体 (soluble human gp130 receptor, extracellular region of SEQ ID NO 1 with six histidines) (human, UniProt P40189 23-619); assay: ELISA, immobilised soluble human gp130, recombinant antibody from COS1 cells
T6 construct: Secreted from CHO DG44 cells and purified on HisTrap; no cleavage site is stated; also called 可溶性ヒトgp130受容体タンパク質; ヒト可溶性gp130受容体
T6 sequence: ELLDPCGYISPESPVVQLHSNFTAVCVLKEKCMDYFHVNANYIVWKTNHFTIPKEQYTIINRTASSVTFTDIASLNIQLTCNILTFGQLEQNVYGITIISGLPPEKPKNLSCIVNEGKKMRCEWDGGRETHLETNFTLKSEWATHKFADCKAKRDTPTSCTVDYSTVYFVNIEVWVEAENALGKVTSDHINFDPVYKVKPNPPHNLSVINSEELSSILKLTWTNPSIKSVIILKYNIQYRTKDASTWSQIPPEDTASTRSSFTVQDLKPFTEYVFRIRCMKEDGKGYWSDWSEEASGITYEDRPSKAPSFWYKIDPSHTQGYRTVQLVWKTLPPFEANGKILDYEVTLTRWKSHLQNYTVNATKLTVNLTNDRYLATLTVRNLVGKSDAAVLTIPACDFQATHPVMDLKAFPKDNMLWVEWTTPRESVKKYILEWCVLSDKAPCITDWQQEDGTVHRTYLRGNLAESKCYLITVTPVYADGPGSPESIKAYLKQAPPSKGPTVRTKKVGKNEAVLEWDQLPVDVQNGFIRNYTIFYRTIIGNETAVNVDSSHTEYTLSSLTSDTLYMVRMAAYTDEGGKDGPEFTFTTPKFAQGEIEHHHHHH

Measured: binding result

B1: 抗体C (antibody C, mouse anti-human gp130 monoclonal antibody) (antibody, V domains shown)
VH: EVQVVESGGDLLLPGGSLKLSCAVSGFTFNAYGMSWVRQTPDKRLELVATINSNGDSTYYPDSVKGRFTISRDNAKHTLYLQMSSLKSEDTAMYYCANFYGGFPYWGQGTLVTVSA
VL: VIVLTQSHKFMSTSVGDRVSITCKASQDVDTAVAWYQQKVGHSPKLLIYWAVTRHTGVPDRFTGSGSGTDFTLTISNVQSEDLADYFCQQYSSYPYTFGGGTKLEIKR
notes: Mouse IgG2a, kappa; Entries are the polypeptides as encoded by the cDNA (leader probably included)
binds: all assays above

B2: 抗体B (antibody B, mouse anti-human gp130 monoclonal antibody) (antibody, V domains shown)
VH: EVQLQQSGAELVKPGASVKLSCTASGFNIRDTYMHWVKQRPEQGLEWIGRIDPANGNTKYDPKFQDKATMTADTSSNTAYLQLSSLTSEDTAVYYCARRGNYFYAMDYWGQGTSVTVSS
VL: DIVLTQSPASLAVSLGQRATISCRASESVEYYGTSLMQWYQQKPGQPPKLLIYVASNVESGVPARFSGSGSGTDFSLNIHPVEEDDIAMYFCQQSRKVPWTFGGGTKLEIKR
notes: Mouse IgG2b, kappa; Entries are the polypeptides as encoded by the cDNA (leader probably included)
binds: all assays above
